Laboratory results published in PMC3467072.

Columns and labels:
[1] = molecular target: T1, Rv3066 (TetR-family regulator) (Mycobacterium tuberculosis H37Rv) (UniProt I6X658); experiment: DNase I footprinting
T1 sequence: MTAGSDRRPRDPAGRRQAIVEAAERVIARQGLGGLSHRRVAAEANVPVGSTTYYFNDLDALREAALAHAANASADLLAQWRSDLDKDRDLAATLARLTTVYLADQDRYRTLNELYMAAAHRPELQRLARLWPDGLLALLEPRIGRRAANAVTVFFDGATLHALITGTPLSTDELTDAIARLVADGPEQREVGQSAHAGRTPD

[2] = molecular target: Rv3066 regulator, full-length, with a 6xHis tag at the C-terminus (Mycobacterium tuberculosis strain H37Rv) (UniProt I6X658); experiment: crystal structure

Row | Substance | binding [1] | stoichiometry N [2]
1 | TCGAGATCTTTCACCATGACACGACGTTACGGGGATCGACCGCGCGAACGCTGGGCGGATTTTGTCTCCCACCGGTGTGCCTACTCACGTGTGGACGCACGAGCCTCCTTTGTGTACATTTGTACACAAAGGAGGGGTCTTGATCTACCTATACCTCTTGTGCGCGATCTTCGCGGAAGTGGTGGCAACCAGCCTGCTCAAAAGCACGGAAGGGTTCACTCGGTTG (double strand) [226-bp mmr promoter probe (IR1, IR2 removed)] | binds | –
2 | Rv3066 regulator, full-length, with a 6xHis tag at the C-terminus (from UniProt I6X658 1-202) (natural protein) | – | 2
